Substrate in this data set: CC(=O)SCCNC(=O)CCNC(=O)[C@H](O)C(C)(C)COP(=O)(O)OP(=O)(O)OC[C@H]1O[C@@H](n2cnc3c(N)ncnc32)[C@H](O)[C@@H]1OP(=O)(O)O
Nature of the data set: purified protein, by the assay type. As to conditions: other: substrate of FabH; ping-pong mechanism, acetyl-CoA first substrate, malonyl-ACP second.

The record followed here is patent US20040087506A1, “Methods of modulating FabH activity” (SmithKline Beecham Corporation, priority 1999, published 2004).

B1: E. coli FabH (Escherichia coli K-12) (protein)
chain: MYTKIIGTGSYLPEQVRTNADLEKMVDTSDEWIVTRTGIRERHIAAPNETVSTMGFEAATRAIEMAGIEKDQIGLIVVATTSATHAFPSAACQIQSMLGIKGCPAFDVAAACAGFTYALSVADQYVKSGAVKYALVVGSDVLARTCDPTDRGTIIIFGDGAGAAVLAASEEPGIISTHLHADGSYGELLTLPNADRVNPENSIHLTMAGNEVFKVAVTELAHIVDETLAANNLDRSQLDWLVPHQANLRIISATAKKLGMSMDNVVVTLDRHGNTSAASVPCALDEAVRDGRIKPGQLVLLEAFGGGFTWGSALVRF
B1: the Km was determined as 34 µM.
